Results published in patent US20150232507A1.

What was measured:
Assay in all cases: cell-based or functional assay
[1] = biological target: C-terminal domain of G1 cloned directly to Trx whose first amino acid is Ala (E. coli)
[2] = biological target: C-terminal domain of G1 cloned directly to Trx whose first amino acid is Arg (E. coli)
[3] = biological target: C-terminal domain of G1 cloned directly to Trx whose first amino acid is Asn (E. coli)
[4] = biological target: C-terminal domain of G1 cloned directly to Trx whose first amino acid is Asp (E. coli)
[5] = biological target: C-terminal domain of G1 cloned directly to Trx whose first amino acid is Cys (E. coli)
[6] = biological target: C-terminal domain of G1 cloned directly to Trx whose first amino acid is Gln (E. coli)
[7] = biological target: C-terminal domain of G1 cloned directly to Trx whose first amino acid is Glu (E. coli)
[8] = biological target: C-terminal domain of G1 cloned directly to Trx whose first amino acid is Gly (E. coli)
[9] = biological target: C-terminal domain of G1 cloned directly to Trx whose first amino acid is His (E. coli)
[10] = biological target: C-terminal domain of G1 cloned directly to Trx whose first amino acid is Ile (E. coli)
[11] = biological target: C-terminal domain of G1 cloned directly to Trx whose first amino acid is Leu (E. coli)
[12] = biological target: C-terminal domain of G1 cloned directly to Trx whose first amino acid is Lys (E. coli)
[13] = biological target: C-terminal domain of G1 cloned directly to Trx whose first amino acid is Met (E. coli)
[14] = biological target: C-terminal domain of G1 cloned directly to Trx whose first amino acid is Phe (E. coli)
[15] = biological target: C-terminal domain of G1 cloned directly to Trx whose first amino acid is Pro (E. coli)
[16] = biological target: C-terminal domain of G1 cloned directly to Trx whose first amino acid is Ser (E. coli)
[17] = biological target: C-terminal domain of G1 cloned directly to Trx whose first amino acid is Thr (E. coli)
[18] = biological target: C-terminal domain of G1 cloned directly to Trx whose first amino acid is Trp (E. coli)
[19] = biological target: C-terminal domain of G1 cloned directly to Trx whose first amino acid is Tyr (E. coli)
[20] = biological target: C-terminal domain of G1 cloned directly to Trx whose first amino acid is Val (E. coli)

B1: G1^N(C1A): StreptagII-gpD-linker[N-extein]-Gp41.1^N(C1A)-GGHHHHHH fusion protein (protein)
chain: MASWSHPQFEKASKETFTHYQPQGNSDPAHTATAPGGLSAKAPAMTPLMLDTSSRKLVAWDGTTDGAAVGILAVAADQTSTTLTFYKSGTFRYEDVLWPEAASDETKKRTAFAGTAISIVGSTRSGYALDLKTQVQTPQGMKEISNIQVGDLVLSNTGYNEVLNVFPKSKKKSYKITLEDGKEIICSEEHLFPTQTGEMNISGGLKEGMCLYVKEGGHHHHHH
B1 gave a C-terminal Cleavage Yield (%) [1] of 75.8%, a C-terminal Cleavage k [1] of 0.000357 s⁻¹ and a C-terminal Cleavage t(½) [1] of 32.4 min. For the same binder, the C-terminal Cleavage Yield (%) [2] was 87.3%, the C-terminal Cleavage k [2] was 0.00051 s⁻¹ and the C-terminal Cleavage t(½) [2] was 22.6 min. The C-terminal Cleavage Yield (%) [3] was 71.2%, the C-terminal Cleavage k [3] was 0.000287 s⁻¹ and the C-terminal Cleavage t(½) [3] was 40.3 min. The C-terminal Cleavage Yield (%) [4] was 68.6%, the C-terminal Cleavage k [4] was 0.000247 s⁻¹ and the C-terminal Cleavage t(½) [4] was 46.8 min. It also gave a C-terminal Cleavage Yield (%) [5] of 83.6%, a C-terminal Cleavage k [5] of 0.000683 s⁻¹ and a C-terminal Cleavage t(½) [5] of 16.9 min. It also gave a C-terminal Cleavage Yield (%) [6] of 88.8%, a C-terminal Cleavage k [6] of 0.00047 s⁻¹ and a C-terminal Cleavage t(½) [6] of 24.6 min. For the same binder, the C-terminal Cleavage Yield (%) [7] was 86.2%, the C-terminal Cleavage k [7] was 0.000127 s⁻¹ and the C-terminal Cleavage t(½) [7] was 91.2 min. For the same binder, the C-terminal Cleavage Yield (%) [8] was 75.2%, the C-terminal Cleavage k [8] was 0.000137 s⁻¹ and the C-terminal Cleavage t(½) [8] was 84.5 min. For the same binder, the C-terminal Cleavage Yield (%) [9] was 71.1%, the C-terminal Cleavage k [9] was 0.000447 s⁻¹ and the C-terminal Cleavage t(½) [9] was 25.9 min. It also gave a C-terminal Cleavage Yield (%) [10] of 88.4%, a C-terminal Cleavage k [10] of 0.000173 s⁻¹ and a C-terminal Cleavage t(½) [10] of 66.7 min. The C-terminal Cleavage Yield (%) [11] was 69.3%, the C-terminal Cleavage k [11] was 0.000273 s⁻¹ and the C-terminal Cleavage t(½) [11] was 42.3 min. The C-terminal Cleavage Yield (%) [12] was 86.7%, the C-terminal Cleavage k [12] was 0.00051 s⁻¹ and the C-terminal Cleavage t(½) [12] was 22.6 min. For the same binder, the C-terminal Cleavage Yield (%) [13] was 85.6%, the C-terminal Cleavage k [13] was 0.00087 s⁻¹ and the C-terminal Cleavage t(½) [13] was 13.3 min. For the same binder, the C-terminal Cleavage Yield (%) [14] was 72.6%, the C-terminal Cleavage k [14] was 0.000307 s⁻¹ and the C-terminal Cleavage t(½) [14] was 37.7 min. The C-terminal Cleavage Yield (%) [15] was 57.8%, the C-terminal Cleavage k [15] was 6e-05 s⁻¹ and the C-terminal Cleavage t(½) [15] was 193 min. It also gave a C-terminal Cleavage Yield (%) [16] of 89.4%, a C-terminal Cleavage k [16] of 0.000483 s⁻¹ and a C-terminal Cleavage t(½) [16] of 23.9 min. It also gave a C-terminal Cleavage Yield (%) [17] of 87.5%, a C-terminal Cleavage k [17] of 0.000573 s⁻¹ and a C-terminal Cleavage t(½) [17] of 20.1 min. The C-terminal Cleavage Yield (%) [18] was 94.1%, the C-terminal Cleavage k [18] was 0.00028 s⁻¹ and the C-terminal Cleavage t(½) [18] was 41.3 min. It also gave a C-terminal Cleavage Yield (%) [19] of 91.3%, a C-terminal Cleavage k [19] of 0.00033 s⁻¹ and a C-terminal Cleavage t(½) [19] of 35 min. It also gave a C-terminal Cleavage Yield (%) [20] of 86.7%, a C-terminal Cleavage k [20] of 0.000273 s⁻¹ and a C-terminal Cleavage t(½) [20] of 42.3 min.
